Measured values from publication doi:10.1101/2023.04.28.538712 (bioRxiv, 2023).
Positions count from the first letter of the chain named.

What was measured:
[1] = target: T1, β2-microglobulin, biotinylated (Homo sapiens, UniProt P61769); test: BLI; Octet-BLI K2; SA sensors loaded with 50 nM biotinylated β2-microglobulin; Nb24 variants in solution (25-400 nM in Fig. 5C); PBS + 0.05% Tween-20, 30°C, 1000 rpm; global fit, 1:1 partial dissociation binding model; KD mean of 3 independent experiments; settings: both partners purified
T1 construct: β2-microglobulin, human; Surmise: such E. coli constructs are usually the mature protein with an added first methionine; also called human β2-microglobulin; recombinant β2-microglobulin

[2] = target: T2, SARS-CoV-2 Spike receptor-binding domain (RBD), biotinylated (SARS-CoV-2, strain ; …, UniProt P0DTC2); test: BLI; settings: both partners purified
T2 construct: also called SARS-CoV-2 RBD; SarS-CoV-2 RBD

T1 sequence (P61769 21-119): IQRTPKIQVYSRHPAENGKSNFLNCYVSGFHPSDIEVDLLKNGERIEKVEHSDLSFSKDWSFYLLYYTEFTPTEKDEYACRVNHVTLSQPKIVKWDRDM

B1: Nb24 WT nanobody (VHH)
VHH: QVQLQESGGGSVQAGGSLRLSCAASGYTDSRYCMAWFRQAPGKEREWVARINSGRDITYYADSVKGRFTFSQDNAKNTVYLQMDSLEPEDTATYYCATDIPLRCRDIVAKGGDGFRYWGQGTQVTVSS
notes: source: E. coli Shuffle LysY, secreted to the medium, purified (His Mag Sepharose Excel beads, SEC Superdex 75)
Kd [1]: 79 nM

B2: mNb6 humanised variant, AbNatiV Enhanced sampling (+buried) (VHH)
VHH: EVQLVESGGGLVQPGGSLRLSCAASGYIFGRNAMGWVRQAPGKGREWVSGITRRGSITYYADSVKGRFTISRDNAKNTVYLQMNSLRPEDTAVYYCAADPASPAYGDYWGQGTQVTVSS
notes: Parent: mNb6 WT
binding result [2]: binds

B3: mNb6 humanised variant, AbNatiV Exhaustive sampling (+buried) (VHH)
VHH: B2 VHH with R45L, S49A, N84D, Q114L
notes: Parent: mNb6 WT; also called mNb6 Exhausted Sampling + buried; Exhausted +buried
binding result [2]: binds

B4: Nb24 humanised variant, AbNatiV Enhanced sampling (VHH)
VHH: B1 VHH with Q1E, Q5L, S11L, A14P, Q72R, A75S, E87R, T93V
notes: Parent: Nb24 WT; also called Nb24 Enhanced; source: E. coli Shuffle LysY, secreted to the medium, purified (His Mag Sepharose Excel beads, SEC Superdex 75)
Kd [1]: 68 nM

B5: Nb24 humanised variant, AbNatiV Exhaustive sampling (VHH)
VHH: B1 VHH with Q1E, Q5V, S11L, A14P, E44G, R45L, Q72R, E87R, T93V
notes: Parent: Nb24 WT; also called Nb24 Exhaustive; source: E. coli Shuffle LysY, secreted to the medium, purified (His Mag Sepharose Excel beads, SEC Superdex 75)
Kd [1]: 75 nM

B6: Nb24 humanised variant, AbNatiV Enhanced sampling (+buried) (VHH)
VHH: B1 VHH with Q1E, Q5L, S11L, A14P, F70V, Q72R, A75S, E87R, T93V
notes: Parent: Nb24 WT; source: E. coli Shuffle LysY, secreted to the medium, purified (His Mag Sepharose Excel beads, SEC Superdex 75)
binding result [1]: binds

B7: Nb24 humanised variant, AbNatiV Exhaustive sampling (+buried) (VHH)
VHH: EVQLVESGGGLVQPGGSLRLSCAASGYTDSRYCMAWFRQAPGKGLEWVARINSGRDITYYADSVKGRFTISRDNAKNTVYLQMDSLKPEDTAVYYCATDIPLRCRDIVAKGGDGFRYWGQGTLVTVSS
notes: Parent: Nb24 WT; also called Exhausted +buried; source: E. coli Shuffle LysY, secreted to the medium, purified (His Mag Sepharose Excel beads, SEC Superdex 75)
binding result [1]: binds

B8: Nb24 humanised variant, Frequency and Structure-based humanisation (Llamanade) (VHH)
VHH: B7 VHH with E1Q, V79L, D84N, K87R, P88A, T98R
notes: Parent: Nb24 WT; also called Frequency & structure-based; Frequency and Structure-based humanised variant; source: E. coli Shuffle LysY, secreted to the medium, purified (His Mag Sepharose Excel beads, SEC Superdex 75)
binding result [1]: binds

B9: mNb6 humanised variant, AbNatiV Enhanced sampling (VHH)
VHH: B2 VHH with V37Y, G44E, W47L, S49A, Y80F
notes: Parent: mNb6 WT; also called mNb6 Enhanced
Kd [2]: 0.86 nM

B10: mNb6 humanised variant, AbNatiV Exhaustive sampling (VHH)
VHH: B2 VHH with V37Y, R45L, S49A, Y80F, N84D, Q114L
notes: Parent: mNb6 WT; also called mNb6 Exhaustive
Kd [2]: 15 nM

B11: mNb6 humanised variant, Frequency and Structure-based humanisation (Llamanade) (VHH)
VHH: B2 VHH with E1Q, R45L, S49A, V79L, P88A, A98R, Q114L
notes: Parent: mNb6 WT; also called Frequency & structure-based; Frequency and Structure-based variant
binding result [2]: no binding (tested: 500 nM)
